The test addresses T1, Staphylococcal Enterotoxin B (SEB) (UniProt P01552 28-266).
T1 sequence: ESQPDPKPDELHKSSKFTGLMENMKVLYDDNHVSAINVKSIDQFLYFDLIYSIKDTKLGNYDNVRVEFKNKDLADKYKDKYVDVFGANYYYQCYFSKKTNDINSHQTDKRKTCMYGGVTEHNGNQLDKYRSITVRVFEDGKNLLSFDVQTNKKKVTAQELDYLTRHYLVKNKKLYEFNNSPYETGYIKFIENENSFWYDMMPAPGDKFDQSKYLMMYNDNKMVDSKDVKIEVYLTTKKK
Put plainly: SPR on SEB-coated chip.

B1: sdAb A3 lacking the disulfide (A3-ds) (VHH)
VHH: EVQLVESGGGLVQAGDSLRLSATASGRTFSRAVMGWFRQAPGKEREFVAAISAAPGTAYYAFYADSVRGRFSISADSAKNTVYLQMNSLKPEDTAVYYVAADLKMQVAAYMNQRSVDYWGQGTQVTVSSAAALEHHHHHH
B1: the binding result was “binds”.

For the origin of these results see patent publication US20150203548A1 (GOVERNMENT OF THE UNITED STATES OF AMERICA AS REPRESENTED …, published 2015).
